Measurements published in patent publication US9914781 (GlaxoSmithKline, dated 2018).

T1: pan-neurotrophin receptor p75^NTR (UniProt P08138 29-427, limits assumed)
T1 construct: whole, on cells
T1 sequence (looked up): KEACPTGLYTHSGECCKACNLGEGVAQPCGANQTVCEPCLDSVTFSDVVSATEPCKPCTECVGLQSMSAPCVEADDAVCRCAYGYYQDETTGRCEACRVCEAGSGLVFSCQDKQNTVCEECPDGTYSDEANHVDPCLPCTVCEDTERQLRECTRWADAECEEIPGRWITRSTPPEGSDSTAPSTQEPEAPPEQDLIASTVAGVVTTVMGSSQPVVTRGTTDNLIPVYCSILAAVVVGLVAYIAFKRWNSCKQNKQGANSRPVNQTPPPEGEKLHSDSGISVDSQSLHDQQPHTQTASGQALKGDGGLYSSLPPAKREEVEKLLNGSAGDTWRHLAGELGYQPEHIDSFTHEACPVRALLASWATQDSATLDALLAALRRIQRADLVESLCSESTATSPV


Columns and labels:
[1] = target: T2, recombinant human TrkB extracellular domain (FLAG tag-GSA-C32-H430-His5) (human, UniProt Q16620 31-430); assay: SPR, human TrkB-ECD
T2 construct: Single alanine mutants were made in this ECD; also called TrkB-ECD; TrkB ECD; not shown: FLAG tag
T2 sequence (Q16620 other isoform, or with tags, fused parts or gaps): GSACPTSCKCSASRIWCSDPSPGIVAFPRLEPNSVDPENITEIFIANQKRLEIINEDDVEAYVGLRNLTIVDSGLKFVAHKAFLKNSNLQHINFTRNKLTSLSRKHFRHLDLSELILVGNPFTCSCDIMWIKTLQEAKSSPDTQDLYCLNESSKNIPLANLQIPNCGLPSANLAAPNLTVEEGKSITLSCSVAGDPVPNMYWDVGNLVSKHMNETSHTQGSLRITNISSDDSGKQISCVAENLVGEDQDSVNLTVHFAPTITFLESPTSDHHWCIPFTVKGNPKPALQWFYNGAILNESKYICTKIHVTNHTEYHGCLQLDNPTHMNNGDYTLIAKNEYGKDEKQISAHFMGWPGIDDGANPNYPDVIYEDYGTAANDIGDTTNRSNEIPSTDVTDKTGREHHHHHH

[2] = target: T3, human full-length TrkB receptor (human, UniProt Q16620 32-822); assay: cell-based or functional assay
T3 sequence (Q16620 32-822 limits assumed): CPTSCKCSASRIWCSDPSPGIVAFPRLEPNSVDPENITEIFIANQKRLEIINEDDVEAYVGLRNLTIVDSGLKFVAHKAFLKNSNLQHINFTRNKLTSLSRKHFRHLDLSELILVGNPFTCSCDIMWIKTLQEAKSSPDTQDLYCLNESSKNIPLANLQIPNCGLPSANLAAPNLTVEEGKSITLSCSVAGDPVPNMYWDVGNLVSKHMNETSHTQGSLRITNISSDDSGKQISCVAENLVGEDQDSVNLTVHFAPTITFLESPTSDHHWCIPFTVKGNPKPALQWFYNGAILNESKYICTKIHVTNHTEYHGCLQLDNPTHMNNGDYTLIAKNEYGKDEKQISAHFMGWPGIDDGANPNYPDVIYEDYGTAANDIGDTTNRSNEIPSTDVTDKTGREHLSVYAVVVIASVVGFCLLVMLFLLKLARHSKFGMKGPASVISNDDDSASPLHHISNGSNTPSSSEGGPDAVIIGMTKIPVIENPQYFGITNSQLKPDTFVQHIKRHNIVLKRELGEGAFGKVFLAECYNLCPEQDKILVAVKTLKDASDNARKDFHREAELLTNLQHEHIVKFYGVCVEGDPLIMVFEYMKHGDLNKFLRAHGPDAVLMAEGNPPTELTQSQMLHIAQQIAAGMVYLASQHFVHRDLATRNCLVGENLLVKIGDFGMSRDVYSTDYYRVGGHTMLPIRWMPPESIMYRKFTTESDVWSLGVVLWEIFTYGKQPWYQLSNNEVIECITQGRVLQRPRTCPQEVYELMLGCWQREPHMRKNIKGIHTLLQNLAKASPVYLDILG

[3] = target: T3, human full-length TrkB receptor; assay: cell-based or functional assay; remark: listed apart in the source
[4] = target: TrkB D1-D3 domain variant (C32-L196) (human, UniProt Q16620 32-196); assay: SPR with TrkB domain deletion variants
Sequence of TrkB D1-D3 domain variant (C32-L196) (Q16620 32-196 limits assumed, stated change not applied): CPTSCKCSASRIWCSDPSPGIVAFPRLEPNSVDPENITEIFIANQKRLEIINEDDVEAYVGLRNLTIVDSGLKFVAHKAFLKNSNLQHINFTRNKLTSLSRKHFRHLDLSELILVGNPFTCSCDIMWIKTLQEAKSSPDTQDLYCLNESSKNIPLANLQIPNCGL

[5] = target: T3, human full-length TrkB receptor; assay: cell-based or functional assay; remark: listed apart in the source
murine TrkB receptor = target: T4, murine TrkB receptor (murine, UniProt P15209 32-821); assay: recombinant TrkB in a heterologous cell line, primary cells or human iPSC derived cells
T4 construct: whole, on cells; also called mouse TrkB; rodent TrkB
T4 sequence (P15209 32-821): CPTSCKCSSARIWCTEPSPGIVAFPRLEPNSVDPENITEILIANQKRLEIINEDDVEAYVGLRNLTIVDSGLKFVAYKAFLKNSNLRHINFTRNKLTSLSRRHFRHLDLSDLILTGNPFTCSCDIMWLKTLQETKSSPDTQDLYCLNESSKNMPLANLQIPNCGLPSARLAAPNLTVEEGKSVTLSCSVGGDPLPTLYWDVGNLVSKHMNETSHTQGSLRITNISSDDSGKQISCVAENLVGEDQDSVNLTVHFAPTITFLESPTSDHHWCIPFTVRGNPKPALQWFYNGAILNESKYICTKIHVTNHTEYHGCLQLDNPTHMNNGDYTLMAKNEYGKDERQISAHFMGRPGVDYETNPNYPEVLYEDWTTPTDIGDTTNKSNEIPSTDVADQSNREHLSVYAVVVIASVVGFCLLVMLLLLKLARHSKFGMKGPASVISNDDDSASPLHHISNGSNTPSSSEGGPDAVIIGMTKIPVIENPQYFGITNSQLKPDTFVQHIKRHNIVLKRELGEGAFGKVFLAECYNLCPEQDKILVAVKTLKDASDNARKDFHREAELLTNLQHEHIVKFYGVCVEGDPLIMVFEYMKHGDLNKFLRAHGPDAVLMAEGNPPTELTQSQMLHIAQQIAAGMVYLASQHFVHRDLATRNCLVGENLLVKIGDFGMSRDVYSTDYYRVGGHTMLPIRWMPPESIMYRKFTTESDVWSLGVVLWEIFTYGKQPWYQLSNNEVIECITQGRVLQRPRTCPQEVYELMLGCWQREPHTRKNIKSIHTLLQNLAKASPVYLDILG

rat TrkB receptor = target: T5, rat TrkB receptor (rat, UniProt Q63604 32-821); assay: as above
T5 construct: whole, on cells; also called rodent TrkB
T5 sequence (Q63604 32-821): as the sequence (P15209 32-821) above, with T3M, S9T, A10T, V32I, R63K, S84G, M153T, L185I, S394T, S770N counted along it

[6] = target: T1, pan-neurotrophin receptor p75^NTR; assay: cell based binding assay
TrkB_H284-H430 ECD-6H = target: T6, TrkB_H284-H430 ECD-6H (human, UniProt Q16620 284-430); assay: SEC-MALS
T6 construct: the SEC-MALS construct is named only by its residue limits and tag; also called soluble truncated form of the ECD of TrkB
T6 sequence (Q16620 other isoform, or with tags, fused parts or gaps limits assumed): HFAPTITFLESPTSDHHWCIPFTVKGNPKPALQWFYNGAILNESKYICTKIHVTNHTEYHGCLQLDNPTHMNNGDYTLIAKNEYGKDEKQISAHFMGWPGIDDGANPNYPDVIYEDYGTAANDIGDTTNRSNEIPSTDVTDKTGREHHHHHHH

human FcRn = human FcRn (human, UniProt P55899 24-297; P61769 21-119, limits assumed); assay: SPR
[7] = target: T7, recombinant cynomolgus TrkB-ECD (cynomolgus, UniProt A0A2K5VS06 32-430); assay: SPR, 1:1 binding mode, recombinant cynomolgus TrkB-ECD
T7 construct: extracellular domain

[8] = target: T2, recombinant human TrkB extracellular …; assay: SPR, 1:1 binding mode, recombinant human TrkB-ECD

| Kd [1] [nM] | koff [1] [s⁻¹] | kon [1] [M⁻¹ s⁻¹] | Activation of TrkB (pTrkB), EC50 [2] [nM] | Potentiation of BDNF-induced agonism of TrkB (pTrkB, BDNF alone = 100%) [2] [%] | EC50 (read off the curve), potentiation of pTrkB in the presence of 10 nM BDNF [5] [nM] | neurite outgrowth, rat PC12 cells stably expressing human full length TrkB, EC50 [3] [nM] | Binder | cell survival, EC50 [3] [nM] | cell survival, rat PC12 cells stably expressing human full length TrkB, EC50 [3] [nM] | also measured |
| --- | --- | --- | --- | --- | --- | --- | --- | --- | --- | --- |
| ~9.8 | 0.000676 | 69000 | ~15 | ~120 | – | – | 8E5 (murine TrkB agonist monoclonal antibody) (antibody, mouse IgG1, kappa, V domains shown, Full length murine chains) VH: EVQLVESGGDLVKPGGSLKLSCAASGFTFSTYGMSWVRQTPDKGLEWVATVSTGGTYTYYPDSVKGRFTISRDNAKNTLYLQMSSLKSEDTAMYYCARGGYSFAYWGQGTLVTVSA VL: ENVLTQSPAIMSASPGEKVTMTCRASSSVSSSYLHWYQQKSGVSPKLWIYSTSNLASGVPARFSGSGSGTSYSLTISSVEAEDAATYYCQQYSGYPLTFGAGTKLELKR | 0.09 | – | neurite outgrowth, EC50 [3]: 1.58 nM |
| ~42 | 0.00239 | 56600 | – | ~130 | ~10 | 0.19 | 1G11 (murine TrkB agonist monoclonal antibody) (antibody, V domains shown, Full length murine heavy and light chains; from a hybridoma of Balb/c mice immunised with human TrkB-ECD; Not Fc-disabled; also called 1G11 mAb; murine 1G11) VH: QVQLQQSGDDLVKPGASVKLSCKASGYTFTSYYINWIKQRPGQGLECIGRIAPGNTYYNEIFKGKAILTVDTSSSTAYIQLSSLSSEDSGVYFCARRGYEGALDYWGQGTSVTVSS VL: DIVLTQSPATLSVTPGDSVSLSCRASQRISNNLHWYQQKSHESPRLLIKYVSQSISGIPSRFSGSGSGTDFTLSINSVETEDFGMYFCQQSNSWPLTFGAGTKLELKR | – | 0.025 | binding result [4]: no binding; Activation of TrkB (pTrkB, Y515), EC50, CHO-K1 cells [2]: 3.1 nM; binding result (murine TrkB receptor): binds; binding result (rat TrkB receptor): binds; binding result [6]: no binding |
| – | – | – | – | – | – | – | Brain Derived Neurotrophic Factor (BDNF) (ligand, UniProt P23560 129-247, looked up, also called BNDF) HSDPARRGELSVCDSISEWVTAADKKTAVDMSGGTVTVLEKVPVSKGQLKQYFYETKCNPMGYTKEGCRGIDKRHWNSQCRTTQSYVRALTMDSKKRIGWRFIRIDTSCVCTLTIKRGR | – | – | binding result (TrkB_H284-H430 ECD-6H): binds |
| ~3.3 | 0.000145 | 44100 | 1 to 2 | – | – | – | 5D11 (murine TrkB agonist monoclonal antibody) (antibody, mouse IgG1, kappa, V domains shown, Full length murine chains; same as 3E10; also called 3E10; 5D11 (=3E10)) VH: QVHLQQSGAELVRPGTSVKVSCKASGYAFTNYLIEWIKQRPGQGLEWIGVINPGSGGTNYNDKFKGKAILTADKSSTTAYMQLSSLTSDDSAVYFCARGGNDYGDYWGQGTSVTVSS VL: DIVLTQSPASLAVSLGQRATISCRASQSVSTSFYSYMHWYQQKPGQPPKVFIKYASNLQSGVPARFSGSGSGTDFTLNIHPVEEDDTATYYCQHSWEIPWTFGGGTKLEIKR | – | – | – |
| ~7.5 | 0.000897 | 120000 | 0.2 to 0.6 | ~160 | ~0.7 | – | 3A3 (murine TrkB agonist monoclonal antibody) (antibody, mouse IgG1, kappa, V domains shown, Full length murine chains; also called 3B3; 3A3 (=3B3)) VH: QVQLQQSGAELAKPGASVKMSCKASGYTFSSYWMHWVKQRPGQGLEWIGYINPSTGYTDYNQKFKDKATLTADKSSNTAYMQLSSLTSDDSAVYYCARSRAARYWGQGTTLTVSS VL: not shown | 0.006 | – | – |
| – | – | – | – | – | – | 0.07 | Humanised 1G11 (H7, Lo1) (antibody, human IgG1, kappa, Straight graft with serine at Kabat position 47 of VH; human IgG1 Fc with L235A and G237A (EU), Fc-disabled) heavy: not shown light: EIVLTQSPATLSLSPGERATLSCRASQRISNNLHWYQQKPGQAPRLLIKYVSQSISGIPARFSGSGSGTDFTLTISSLEPEDFAVYYCQQSNSWPLTFGQGTKLEIKRTVAAPSVFIFPPSDEQLKSGTASVVCLLNNFYPREAKVQWKVDNALQSGNSQESVTEQDSKDSTYSLSSTLTLSKADYEKHKVYACEVTHQGLSSPVTKSFNRGEC | – | 0.007 | binding result (human FcRn): binds; Kd [7]: ~60 nM; Kd [8]: ~55 nM; Activation of TrkB (pTrkB), EC50, CHO-K1 cells [3]: 0.65 nM |
